The values below come from PMC7155059, “Kinetic characterisation of Erv1, a key component for protein import and folding in yeast mitochondria” (The Febs Journal, 2019).

Substrate in the data set: OC(CS)C(O)CS
The experiment in a line: oxygen consumption, Clark-type electrode. The data set is classed as biochemical, Saccharomyces cerevisiae. The note with it: electron donor, co-substrate O2 (air, ~250 μM), 1 μM Erv1, SOD1 10 units/mL, 50 mM Tris/HCl, 150 mM NaCl, 1 mM EDTA, pH 7.4, 25 °C.

B1: Erv1 (yeast Erv1) (Saccharomyces cerevisiae S288C) (protein)
chain: MKAIDKMTDNPPQEGLSGRKIIYDEDGKPCRSCNTLLDFQYVTGKISNGLKNLSSNGKLAGTGALTGEASELMPGSRTYRKVDPPDVEQLGRSSWTLLHSVAASYPAQPTDQQKGEMKQFLNIFSHIYPCNWCAKDFEKYIRENAPQVESREELGRWMCEAHNKVNKKLRKPKFDCNFWEKRWKDGWDE
notes: WT, ERV1 gene in pET-24a(+), E. coli Rosetta-gami 2, Ni-NTA then size exclusion
As usually defined, the Km is the concentration of substrate that gives half-maximal velocity. For orientation: kcat means the number of substrate molecules converted per active site and unit of time at saturation. Regarding B1, the Km worked out at 1.5 ± 0.1 mM and the kcat was determined as 1.28 ± 0.03 s⁻¹.
